The values that follow come from publication PMC6411835.

This series has as its target T1, Zip2(499-704);Spo16 (Saccharomyces cerevisiae;Saccharomyces cerevisiae) (UniProt P53061+P17122).
T1 sequence 1: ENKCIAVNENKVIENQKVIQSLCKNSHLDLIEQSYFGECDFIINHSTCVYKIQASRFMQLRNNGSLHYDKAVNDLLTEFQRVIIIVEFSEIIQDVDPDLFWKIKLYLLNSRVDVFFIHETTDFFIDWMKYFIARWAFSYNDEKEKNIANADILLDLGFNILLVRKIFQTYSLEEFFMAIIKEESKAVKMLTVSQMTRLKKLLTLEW
T1 sequence 2: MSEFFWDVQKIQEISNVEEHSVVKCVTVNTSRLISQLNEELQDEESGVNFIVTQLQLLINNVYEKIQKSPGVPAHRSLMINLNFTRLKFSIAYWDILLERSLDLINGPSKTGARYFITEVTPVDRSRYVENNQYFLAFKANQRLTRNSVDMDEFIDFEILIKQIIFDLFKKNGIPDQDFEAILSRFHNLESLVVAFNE
Nature of the series: EMSA. (In general: Mobility shift assays separate free from complexed probe on a gel.)

In turn, nicked Holliday Junction gave a Kd of 5 µM.

As usually defined, the Kd is the concentration at which binding is half-saturated. A lower Kd goes with higher affinity.
